US20140242093A1, “METHODS AND COMPOSITIONS FOR MODULATING THE INNATE IMMUNE RESPONSE AND/OR MYOGENESIS IN A MAMMALIAN SUBJECT” (FRED HUTCHINSON CANCER RESEARCH CENTER, priority 2011, published 2014)

System: control human primary myoblasts
Test: Expression microarray of primary myoblasts transduced with lentivirus carrying DUX4-fl, DUX4-s or GFP
Description: Primary human myoblasts were collected and cultured as previously described (Snider et al., 2010). Primary myoblasts were maintained at or below 70% confluency for proliferation. For differentiation, cells were allowed to reach 95-100% confluency in growth medium. Once confluency was reached, the cells were changed to differentiation medium (F10 media supplemented with 1% horse serum, 10 μg/mL insulin, and 10 μg/mL transferrin, penicillin/streptomycin) and maintained for 4 days. Human RD cells were grown in DMEM in 10% bovine calf serum (Hyclone) and penicillin/streptomycin. The primary myoblasts were transduced with lentivirus carrying DUX-fl, DUX4- or GFP (MOI=15).
Expression microarrays were performed on the transduced cells at 24 hours after transduction as follows. […] Samples were analyzed by Illumina Human Whole Genome microarrays. Probe intensities were corrected, normalized, and summarized by the Lumi package of Bioconductor (Du et al., 2008). Differentially expressed genes were identified by the LIMMA package of Bioconductor (Wettenhall and Smyth, 2004). Gene set enrichment analysis (GSEA) was performed using the Bioconductor GOstats package (Falcon and Gentleman, 2007).

B1: DUX4-s: short splice form of DUX4 (SEQ ID NO:112), keeps the double-homeobox domains, lacks the C-terminal activation domain (protein, listed as Homo sapiens)
chain: MALPTPSDSTLPAEARGRGRRRRLVWTPSQSEALRACFERNPYPGIATRERLAQAIGIPEPRVQIWFQNERSRQLRQHRRESRPWPGRRGPPEGRRKRTAVTGSQTALLLRAFEKDRFPGIAAREELARETGLPESRIQIWFQNRRARHPGQGGRAPAQV
Refseq NM_001099790.1
  PRAMEF19 expression fc: −0.03732
Refseq NM_001099852.1
  PRAMEF20 expression fc: −0.003632
Refseq NM_001099854.1
  PRAMEF14 expression fc: −0.1694
Refseq NM_001100114.1
  PRAMEF21 expression fc: −0.06827
Refseq NM_001105522.1
  LOC729384 expression fc: −0.07068
Refseq NM_001126063.2
  KHDC1L expression fc: −0.07068
Refseq NM_001129826.1
  CSAG3 expression fc: 0.09074
Refseq NM_001136118.1
  LOC399940 expression fc: −0.03724
Refseq NM_001136561.1
  LOC440563 expression fc: 0.07051
Refseq NM_001136572.1
  FAM90A7 expression fc: −0.2137
Refseq NR_001561.1
  CYCSL1 expression fc: 0.3733
Refseq NR_001565.1
  MGC10997 expression fc: −0.2936
Refseq NR_002201.1, cultured human skeletal muscle
  FTHL3 expression fc: 0.4498
Refseq NR_002204.1, cultured human skeletal muscle
  FTHL11 expression fc: 0.6004
Refseq NR_002205.1, cultured human skeletal muscle
  FTHL12 expression fc: 0.3871
Refseq NR_002312.1
  RPPH1 expression fc: 0.2269
Refseq NR_002727.1
  RFPL1S expression fc: 0.1147
Refseq NR_002739.1
  SNORD56 expression fc: −0.1657
Refseq NR_002777.2
  fc of TRIM78P (expression array): 1.698
Refseq NR_002944.2
  HNRPA1L-2 expression fc: −0.898
Refseq NR_003051.2
  RMRP expression fc: 0.07334
Refseq NR_003133.1
  fc of LOC400759 (expression array): 1.032
Refseq NR_003249.1
  HNRPDL expression fc: 0.01689
Refseq NR_003264.1
  SDHALP1 expression fc: 0.1225
Refseq NR_023371.1
  RN5S9 expression fc: 0.7616
Refseq NR_024031.1
  KIAA0114 expression fc: −0.316
Refseq NR_024129.1
  NCRNA00092 expression fc: −0.1123
Refseq NR_030228.1
  MIR503 expression fc: −0.1361
Refseq NR_031755.1
  MIR2278 expression fc: 0.09768
Refseq XM_036729.5
  USP41 fc: 0.5246
Refseq XM_061890.11
  TRIM64 expression fc: −0.174
Refseq XM_069743.3
  LOC136157 expression fc: 0.05271
Refseq XM_114987.3
  LOC196120 expression fc: 0.05191
Refseq XM_116384.2
  LOC646066 expression fc: −0.02686
Refseq XM_208203.5
  LOC284428 expression fc: −0.09941
Refseq XM_210642.1
  LOC285697 expression fc: −0.06561
Refseq XM_292724.5
  LOC342934 expression fc: −0.06005
Refseq XM_293943.2
  LOC340096 expression fc: −0.07893
Refseq XM_372030.4
  LOC389633 expression fc: −0.0852
Refseq XM_372343.1
  LOC390031 expression fc: −0.1097
Refseq XM_372543.2
  LOC390530 fc: 0.1083
Refseq XM_372780.3
  LOC391045 expression fc: 0.3531
Refseq XM_372792.2
  LOC391092 expression fc: 0.1107
Refseq XM_373056.1
  LOC391742 expression fc: 0.1596
Refseq XM_373059.2
  LOC391747 expression fc: −0.1049
Refseq XM_373073.2
  LOC391761 expression fc: −0.05894
Refseq XM_373076.3
  LOC391764 expression fc: 0.1211
Refseq XM_373077.2
  LOC391766 expression fc: −0.05537
Refseq XM_373078.1
  LOC391767 expression fc: 0.05542
Refseq XM_374917.3
  LOC399937 expression fc: 0.0007914
Refseq XM_374919.3
  LOC399939 expression fc: −0.06731
Refseq XM_377445.3
  LOC401860 expression fc: −0.1342
Refseq XM_377875.2
  LOC402199 expression fc: 0.0817
Refseq XM_377879.3
  LOC646103 expression fc: −0.1387
Refseq XM_377884.2
  LOC402207 expression fc: −0.01834
Refseq XM_495873.4
  LOC440040 expression fc: 0.08128
Refseq XM_496956.4
  FAM90A9 expression fc: 0.01693
Refseq XM_496961.3
  FAM90A12 expression fc: 0.04824
Refseq XM_497258.1
  LOC441584 expression fc: −0.1442
Refseq XM_498969.2, cultured human skeletal muscle
  LOC441019 expression fc: 0.2625
Refseq XM_499343.2
  PEG10 expression fc: −0.09718
Refseq XM_925891.1
  LOC642362 expression fc: −0.0147
Refseq XM_926027.2
  LOC642538 expression fc: 0.1258
Refseq XM_926073.2
  LOC653111 expression fc: −0.09966
Refseq XM_926241.2
  LOC642843 expression fc: −0.05848
Refseq XM_926437.2
  LOC653192 expression fc: −0.03932
Refseq XM_926449.1
  LOC653194 expression fc: −0.01762
Refseq XM_927019.1
  LOC643731 expression fc: −0.0009314
Refseq XM_927769.1
  LOC653506 fc: 0.01748
Refseq XM_928167.2
  LOC645137 expression fc: −0.1524
Refseq XM_928224.2
  fc of LOC653583 (expression array): 0.1005
Refseq XM_928412.1
  LOC645373 expression fc: −0.06602
Refseq XM_928577.2
  LOC645558 expression fc: −0.04868
Refseq XM_928680.1
  LOC645669 expression fc: 0.08754
Refseq XM_928688.3
  LOC653656 expression fc: −0.1419
Refseq XM_928697.2
  LOC653657 expression fc: 0.186
Refseq XM_929644.2
  LOC646698 expression fc: 0.1105
Refseq XM_929704.2
  LOC646754 expression fc: −0.1486
Refseq XM_929877.1
  LOC646914 expression fc: −0.02473
Refseq XM_931359.2
  fc of LOC338758 (expression array): −0.07166
Refseq XM_933679.1
  LOC644739 fc: −0.07399
Refseq XM_936272.2
  LOC642127 expression fc: 0.04199
Refseq XM_936370.2
  LOC642219 expression fc: 4.39E−05
Refseq XM_936463.2
  LOC285299 expression fc: −0.03458
Refseq XM_936467.2
  fc of BEXL1 (expression array): −0.1528
Refseq XM_937424.1
  LOC653978 expression fc: 0.1928
Refseq XM_937570.1
  LOC646508 expression fc: −0.04201
Refseq XM_937587.1
  LOC648533 expression fc: 0.03736
Refseq XM_938208.2
  LOC342933 expression fc: −0.1021
Refseq XM_938420.2
  PRAMEF17 expression fc: 0.1008
Refseq XM_938508.1
  fc of LOC649425 (expression array): 2.539
Refseq XM_938635.2
  LOC649563 expression fc: −0.06114
Refseq XM_939249.1
  LOC650167 expression fc: 0.04811
Refseq XM_939354.1
  LOC654101 expression fc: 0.09479
Refseq XM_939432.1
  MGC61598 expression fc: 0.09581
Refseq XM_940443.1
  LOC651308 expression fc: 0.03906
Refseq XM_940903.2
  ZC3H5 fc: 0.09652
Refseq XM_941060.1
  LOC651816 expression fc: −0.5388
Refseq XM_941404.1
  LOC652080 expression fc: 0.1734
Refseq XM_941777.1
  LOC652349 expression fc: 0.01696
Refseq XM_941875.1
  LOC652433 expression fc: −0.03197
Refseq XM_942401.1
  LOC651390 expression fc: −0.07746
Refseq XM_001126140.1
  LOC727846 expression fc: 0.003662
Refseq XM_001126471.1
  LOC730278 fc: 0.1899
Refseq XM_001127571.1, cultured human skeletal muscle
  PARP10 expression fc: 0.5424
Refseq XM_001128017.1
  fc of LOC730996 (expression array): 1.049
Refseq XM_001129035.1
  LOC342900 expression fc: 0.1315
Refseq XM_001130065.2
  LOC729368 expression fc: −0.06002
Refseq XM_001130308.2
  LOC729458 expression fc: 0.008126
Refseq XM_001131061.1
  LOC729694 expression fc: −0.1655
Refseq XM_001131072.1
  LOC729698 expression fc: −0.06572
Refseq XM_001131081.1
  LOC729700 expression fc: −0.184
Refseq XM_001131091.1
  LOC729706 expression fc: −0.01626
Refseq XM_001131132.1
  LOC729724 expression fc: 0.1112
Refseq XM_001131140.1
  LOC729731 expression fc: 0.09881
Refseq XM_001131473.2
  LOC728450 expression fc: 0.1347
Refseq XM_001132711.1
  RFNG fc: −0.2183
Refseq XM_001133386.1
  LOC732416 expression fc: 0.05578
Refseq XM_001134346.1
  THOC4 expression fc: −0.1896
Refseq XM_001713659.1
  PRAMEF15 expression fc: −0.05867
Refseq XM_001713681.1
  LOC100131392 expression fc: −0.007104
Refseq XM_001713808.1
  LOC100132564 expression fc: 0.401
Refseq XM_001713901.1
  LOC391769 expression fc: 0.152
Refseq XM_001713933.1
  PRAMEF13 expression fc: 0.1179
Refseq XM_001714028.1
  PRAMEF11 expression fc: 0.1217
Refseq XM_001714301.1
  fc of LOC285296 (expression array): 0.8246
Refseq XM_001714755.1
  LOC100133588 expression fc: 0.03978
Refseq XM_001714786.1
  CTGLF7 expression fc: −0.2949
Refseq XM_001714940.1
  LOC100129630 expression fc: −0.1038
Refseq XM_001715080.1
  LOC391763 expression fc: 0.09287
Refseq XM_001717781.1
  LOC642446 expression fc: 0.1879
Refseq XM_001717965.1
  LOC100133446 expression fc: 0.1161
Refseq XM_001718314.1
  LOC100129165 fc: 0.2245
Refseq XM_001718563.1
  LOC643336 expression fc: 1.023
Refseq XM_001718702.1
  LOC100129053 expression fc: 0.09951
Refseq XM_001719052.1
  LOC100130652 expression fc: 0.105
Refseq XM_001719234.1
  RFPL4A expression fc: −0.09032
Refseq XM_001719546.1
  LOC728809 fc: 0.02213
Refseq XM_001719549.1
  LOC100134199 expression fc: 0.03252
